Reference: article PMC9482650, “Quantitative fragmentomics allow affinity mapping of interactomes” (Nature Communications, 2022)

Experiments:
Test in all cases: holdup assay
Parameters in all cases: key: below the threshold = too weak to quantify, mostly under pKd 3.1 to 4
Details in all cases: plain residues with an end cap or a label only (N-terminal biotin on a linker: ado-ado)
MAST1, Q9Y2H9 = target: MAST1, Q9Y2H9
NHERF3_4, Q5T2W1 = target: T1, NHERF3_4, Q5T2W1
T1 sequence (Q5T2W1 373-468, limits assumed, looked up): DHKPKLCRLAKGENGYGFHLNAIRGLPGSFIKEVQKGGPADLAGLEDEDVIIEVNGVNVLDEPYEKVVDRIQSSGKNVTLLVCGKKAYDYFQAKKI

FRMPD2_1, Q68DX3 = target: FRMPD2_1, Q68DX3
FRMPD2_1, Q68DX3, sequence (Q68DX3 770-861): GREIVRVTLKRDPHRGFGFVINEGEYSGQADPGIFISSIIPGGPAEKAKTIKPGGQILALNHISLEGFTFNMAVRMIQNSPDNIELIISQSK

RHPN1, Q8TCX5 = target: T2, RHPN1, Q8TCX5
T2 sequence (Q8TCX5 508-602, limits assumed, looked up): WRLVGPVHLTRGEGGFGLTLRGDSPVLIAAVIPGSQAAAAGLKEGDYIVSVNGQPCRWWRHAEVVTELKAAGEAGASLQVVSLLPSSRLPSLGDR

TJP1_2, Q07157 = target: TJP1_2, Q07157
TJP1_2, Q07157, sequence (Q07157 181-274): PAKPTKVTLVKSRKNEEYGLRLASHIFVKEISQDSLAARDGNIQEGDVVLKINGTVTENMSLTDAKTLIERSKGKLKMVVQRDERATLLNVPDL

GORASP2, Q9H8Y8 = target: GORASP2, Q9H8Y8
APBA2_1, Q99767 = target: T3, APBA2_1, Q99767
T3 sequence (Q99767 563-664, limits assumed, looked up): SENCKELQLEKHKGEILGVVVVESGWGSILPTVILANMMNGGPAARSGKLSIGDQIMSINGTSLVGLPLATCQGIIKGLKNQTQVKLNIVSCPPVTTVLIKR

SHANK1, Q9Y566 = target: T4, SHANK1, Q9Y566
T4 sequence (Q9Y566 658-767, limits assumed, looked up): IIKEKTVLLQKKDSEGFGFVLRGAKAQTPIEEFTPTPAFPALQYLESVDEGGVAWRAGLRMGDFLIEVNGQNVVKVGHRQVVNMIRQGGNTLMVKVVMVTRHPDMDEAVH

SCRIB_1, Q14160 = target: SCRIB_1, Q14160
SCRIB_1, Q14160, sequence (Q14160 718-814): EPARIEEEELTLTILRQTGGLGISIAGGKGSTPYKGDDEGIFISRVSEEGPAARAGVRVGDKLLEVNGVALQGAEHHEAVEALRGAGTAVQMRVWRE

PARD3_3, Q8TEW0 = target: PARD3_3, Q8TEW0
PARD3_3, Q8TEW0, sequence (Q8TEW0 582-685): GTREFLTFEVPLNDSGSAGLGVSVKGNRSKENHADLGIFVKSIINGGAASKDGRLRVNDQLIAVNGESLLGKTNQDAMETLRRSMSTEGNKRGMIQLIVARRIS

IL16_3, Q14005 = target: IL16_3, Q14005
IL16_3, Q14005, sequence (Q14005 1107-1207): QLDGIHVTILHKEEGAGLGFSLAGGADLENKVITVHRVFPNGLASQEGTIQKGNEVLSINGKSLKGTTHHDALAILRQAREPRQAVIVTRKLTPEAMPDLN

Inadl_6, Q8NI35 = target: Inadl_6, Q8NI35
Inadl_6, Q8NI35, sequence (Q8NI35 1058-1167): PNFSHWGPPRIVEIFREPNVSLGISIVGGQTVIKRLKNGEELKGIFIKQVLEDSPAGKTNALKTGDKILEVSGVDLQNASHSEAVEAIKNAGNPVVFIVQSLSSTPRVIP

MPDZ_12, O75970 = target: T5, MPDZ_12, O75970
T5 sequence (O75970 1857-1958, limits assumed, looked up): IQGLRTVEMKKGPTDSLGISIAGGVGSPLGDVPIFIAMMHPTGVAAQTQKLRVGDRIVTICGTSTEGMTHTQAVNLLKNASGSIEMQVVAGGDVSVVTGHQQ

GOPC, Q9HD26 = target: GOPC, Q9HD26
SNTG2, Q9NY99 = target: T6, SNTG2, Q9NY99
T6 sequence (Q9NY99 68-166, limits assumed, looked up): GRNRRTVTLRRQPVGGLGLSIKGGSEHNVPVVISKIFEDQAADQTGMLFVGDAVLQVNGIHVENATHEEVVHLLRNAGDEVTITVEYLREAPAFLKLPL

DVL3, Q92997 = target: T7, DVL3, Q92997
T7 sequence (Q92997 244-331, limits assumed, looked up): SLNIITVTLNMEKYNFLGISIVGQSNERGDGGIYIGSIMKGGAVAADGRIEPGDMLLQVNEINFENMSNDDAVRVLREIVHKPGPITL

Inadl_8, Q8NI35 = target: Inadl_8, Q8NI35
Inadl_8, Q8NI35, sequence (Q8NI35 1425-1530): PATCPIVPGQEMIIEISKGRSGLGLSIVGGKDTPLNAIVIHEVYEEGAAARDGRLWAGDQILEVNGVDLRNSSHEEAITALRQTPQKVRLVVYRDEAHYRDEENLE

DLG3_2, Q92796 = target: T8, DLG3_2, Q92796
T8 sequence (Q92796 221-321, limits assumed, looked up): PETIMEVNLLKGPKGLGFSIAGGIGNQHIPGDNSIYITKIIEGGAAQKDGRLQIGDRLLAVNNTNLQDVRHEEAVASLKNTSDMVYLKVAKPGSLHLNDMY

SCRIB_2, Q14160 = target: SCRIB_2, Q14160
SCRIB_2, Q14160, sequence (Q14160 857-960): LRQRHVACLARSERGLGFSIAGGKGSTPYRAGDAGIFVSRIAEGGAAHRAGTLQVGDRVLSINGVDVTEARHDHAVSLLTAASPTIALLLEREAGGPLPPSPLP

LNX1_2, Q8TBB1 = target: LNX1_2, Q8TBB1
LNX1_2, Q8TBB1, sequence (Q8TBB1 371-470): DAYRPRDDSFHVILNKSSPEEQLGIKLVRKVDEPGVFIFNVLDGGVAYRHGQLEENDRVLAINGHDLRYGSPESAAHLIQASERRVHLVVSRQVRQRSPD

GRIP2_4, Q9C0E4 = target: GRIP2_4, Q9C0E4
GRIP2_4, Q9C0E4, sequence (Q9C0E4 446-548): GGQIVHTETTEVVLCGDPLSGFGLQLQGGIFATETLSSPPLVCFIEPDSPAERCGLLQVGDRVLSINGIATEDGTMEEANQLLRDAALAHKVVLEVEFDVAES

DLG3_1, Q92796 = target: T9, DLG3_1, Q92796
T9 sequence (Q92796 125-227, limits assumed, looked up): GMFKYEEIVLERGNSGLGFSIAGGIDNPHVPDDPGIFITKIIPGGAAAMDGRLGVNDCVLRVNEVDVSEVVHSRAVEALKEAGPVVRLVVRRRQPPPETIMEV

LNX1_1, Q8TBB1 = target: LNX1_1, Q8TBB1
LNX1_1, Q8TBB1, sequence (Q8TBB1 261-371): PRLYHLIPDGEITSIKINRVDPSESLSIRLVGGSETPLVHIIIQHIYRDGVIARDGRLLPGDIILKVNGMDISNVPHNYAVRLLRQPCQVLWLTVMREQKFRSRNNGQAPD

PARD3B_1, Q8TEW8 = target: T10, PARD3B_1, Q8TEW8
T10 sequence (Q8TEW8 196-299, limits assumed, looked up): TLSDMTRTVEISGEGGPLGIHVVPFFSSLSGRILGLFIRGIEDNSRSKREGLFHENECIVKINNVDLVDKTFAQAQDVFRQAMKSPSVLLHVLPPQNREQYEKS

MAST2, Q6P0Q8 = target: MAST2, Q6P0Q8
MAST2, Q6P0Q8, sequence (Q6P0Q8 1099-1202): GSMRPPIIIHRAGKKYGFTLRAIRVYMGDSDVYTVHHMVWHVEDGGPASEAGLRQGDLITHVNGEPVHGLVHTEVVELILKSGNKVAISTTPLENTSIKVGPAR

GRID2IP_2, A4D2P6 = target: GRID2IP_2, A4D2P6
GRID2IP_2, A4D2P6, sequence (A4D2P6 272-370): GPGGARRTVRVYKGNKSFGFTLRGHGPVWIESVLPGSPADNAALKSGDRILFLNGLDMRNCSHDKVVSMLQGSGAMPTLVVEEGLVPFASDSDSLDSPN

LIMK2, P53671 = target: LIMK2, P53671
LIMK2, P53671, sequence (P53671 143-248): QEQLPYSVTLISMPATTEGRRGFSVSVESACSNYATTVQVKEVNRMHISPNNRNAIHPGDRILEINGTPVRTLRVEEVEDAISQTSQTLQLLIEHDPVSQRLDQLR

MAST1, Q9Y2H9, sequence (Q9Y2H9 962-1065): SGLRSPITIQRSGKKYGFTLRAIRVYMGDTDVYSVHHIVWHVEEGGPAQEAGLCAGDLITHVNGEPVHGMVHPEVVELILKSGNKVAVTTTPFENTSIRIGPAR

Binder | pKd (MAST1, Q9Y2H9) | pKd (NHERF3_4, Q5T2W1) | pKd (FRMPD2_1, Q68DX3) | pKd (RHPN1, Q8TCX5) | pKd (TJP1_2, Q07157) | pKd (GORASP2, Q9H8Y8) | pKd (APBA2_1, Q99767) | pKd (SHANK1, Q9Y566) | pKd (SCRIB_1, Q14160) | pKd (PARD3_3, Q8TEW0) | pKd (IL16_3, Q14005) | pKd (Inadl_6, Q8NI35) | pKd (MPDZ_12, O75970) | pKd (GOPC, Q9HD26) | pKd (SNTG2, Q9NY99) | pKd (DVL3, Q92997) | pKd (Inadl_8, Q8NI35) | pKd (DLG3_2, Q92796) | pKd (SCRIB_2, Q14160) | pKd (LNX1_2, Q8TBB1) | also measured
PMESGICTIV [TTC24, A2A3L6] | 4.74 | below the threshold | 3.56 | 4.85 | 3.56 | 4.64 | below the threshold | 4.04 | 3.92 | 4.29 | below the threshold | 4 | below the threshold | 4.4 | 4.1 | 3.65 | 4.19 | 4.89 | below the threshold | 4.37 | pKd (GRIP2_4, Q9C0E4): below the threshold; pKd (DLG3_1, Q92796): 4.18; pKd (LNX1_1, Q8TBB1): 4.67; pKd (PARD3B_1, Q8TEW8): 4.26; pKd (MAST2, Q6P0Q8): 5.23; pKd (GRID2IP_2, A4D2P6): 4.17; pKd (LIMK2, P53671): below the threshold
ANGLMQTSKL [SSTR5, P35346] | 4.63 | 4.76 | below the threshold | 4.36 | below the threshold | below the threshold | below the threshold | 4.65 | 4.06 | below the threshold | below the threshold | below the threshold | below the threshold | 4.93 | 3.62 | below the threshold | below the threshold | 3.75 | below the threshold | below the threshold | pKd (GRIP2_4, Q9C0E4): below the threshold; pKd (DLG3_1, Q92796): below the threshold; pKd (LNX1_1, Q8TBB1): below the threshold; pKd (PARD3B_1, Q8TEW8): 4.16; pKd (MAST2, Q6P0Q8): 5.34; pKd (GRID2IP_2, A4D2P6): 4.48; pKd (LIMK2, P53671): below the threshold
NVYGTESVKI [GRIA3, P42263] | 3.93 | below the threshold | below the threshold | below the threshold | 3.59 | 3.51 | below the threshold | below the threshold | below the threshold | 3.73 | below the threshold | below the threshold | below the threshold | below the threshold | below the threshold | below the threshold | below the threshold | below the threshold | below the threshold | below the threshold | pKd (GRIP2_4, Q9C0E4): below the threshold; pKd (DLG3_1, Q92796): below the threshold; pKd (LNX1_1, Q8TBB1): below the threshold; pKd (PARD3B_1, Q8TEW8): 4.8; pKd (MAST2, Q6P0Q8): 3.81; pKd (GRID2IP_2, A4D2P6): below the threshold; pKd (LIMK2, P53671): below the threshold
SRPRPDDLEI [GJA1, P17302] | below the threshold | below the threshold | below the threshold | below the threshold | 4.53 | below the threshold | below the threshold | below the threshold | below the threshold | 3.74 | below the threshold | below the threshold | below the threshold | below the threshold | below the threshold | below the threshold | below the threshold | below the threshold | below the threshold | below the threshold | pKd (GRIP2_4, Q9C0E4): below the threshold; pKd (DLG3_1, Q92796): below the threshold; pKd (LNX1_1, Q8TBB1): below the threshold; pKd (PARD3B_1, Q8TEW8): below the threshold; pKd (MAST2, Q6P0Q8): 3.75; pKd (GRID2IP_2, A4D2P6): below the threshold; pKd (LIMK2, P53671): below the threshold
GCQGETEDVL [PTH2R, P49190] | 3.92 | below the threshold | below the threshold | below the threshold | below the threshold | below the threshold | below the threshold | below the threshold | below the threshold | 4.32 | below the threshold | below the threshold | below the threshold | below the threshold | below the threshold | below the threshold | below the threshold | below the threshold | below the threshold | below the threshold | pKd (GRIP2_4, Q9C0E4): below the threshold; pKd (DLG3_1, Q92796): below the threshold; pKd (LNX1_1, Q8TBB1): below the threshold; pKd (PARD3B_1, Q8TEW8): 4.05; pKd (MAST2, Q6P0Q8): 4.46; pKd (GRID2IP_2, A4D2P6): below the threshold; pKd (LIMK2, P53671): below the threshold
